Measured values as given in publication PMC12207370, “Macrocyclic Peptide Probes for Immunomodulatory Protein CD59: Potent Modulators of Bacterial Toxin Activity and Antibody‐Dependent Cytotoxicity” (Angewandte Chemie (International Ed. in English), 2025).

Target: T1, biotinylated CD59 (Homo sapiens, UniProt P13987)
T1 construct: Recombinant soluble human CD59 with an additional C-terminal cysteine residue
T1 sequence (P13987 26-102 limits assumed): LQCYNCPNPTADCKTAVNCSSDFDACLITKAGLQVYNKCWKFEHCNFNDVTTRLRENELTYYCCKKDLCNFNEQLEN
Test: mRNA-display cyclic peptide screen against CD59-biotin, NGS abundance after 6th selection round
Settings: for Percentage Seq I: counts normalised by total counts of sample Seq I; for Percentage Seq I / Percentage Seq II: percentage of the pool; for Percentage Seq I / Percentage Seq II / Percentage Average / Percentage of the pool, averaged across the two sequencing samples / Percentage of the pool, Seq I / Percentage of the pool, Seq II: sheet R6; for Percentage Seq II: counts normalised by total counts of sample Seq II; for Percentage Average: percentage of the pool averaged across the two sequencing samples; for Counts Seq I / Counts Seq II: raw NGS counts of peptide sequence; for Counts Seq I: sequencing sample Seq I; for Counts Seq I / Counts Seq II / Counts (raw counts for peptide sequence), Seq I / Counts (raw counts for peptide sequence), Seq II: sheet R6 (6th selection round); for Counts Seq II: sequencing sample Seq II; for Counts (raw counts for peptide sequence), Seq I: NGS sample Seq I; for Counts (raw counts for peptide sequence), Seq II: NGS sample Seq II; for Percentage of the pool, averaged across the two sequencing samples: average of Seq I and Seq II; for Percentage of the pool, Seq I: counts normalised by total counts of NGS sample Seq I; for Percentage of the pool, Seq II: counts normalised by total counts of NGS sample Seq II
How it was run: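 Peptide–mRNA fusions were made by in vitro translation with a customised PURE express kit. The kit lacked release factor 1 and methionine and was supplemented with […] initiator tRNA carrying N-chloroacetyl-d-tyrosine. Thioether macrocycles were formed, then enriched and amplified over iterative rounds on CD59-biotin immobilised on streptavidin beads. NGS read counts per sequence were recorded after the 6th selection round.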

Row | Sequence | Percentage Seq I [%] | Percentage Seq II [%] | Percentage Average [%] | Counts Seq I | Counts Seq II | Counts (raw counts for peptide sequence), Seq I | Counts (raw counts for peptide sequence), Seq II | Percentage of the pool, averaged across the two sequencing samples [%] | Percentage of the pool, Seq I [%] | Percentage of the pool, Seq II [%]
1 | SAWGSRQIQYY | 0.059 | 0.051 | 0.055 | 257 | 22 | – | – | – | – | –
2 | KWGSSFFTLYRV | – | – | – | – | – | 49 | 4 | 0.010 | 0.011 | 0.009
3 | SISGGRDYTRG | 0.032 | 0.026 | 0.029 | 141 | 11 | – | – | – | – | –
4 | CFASRLTIDAV | 0.032 | 0.028 | 0.030 | 140 | 12 | – | – | – | – | –
5 | CFSYRIRSAYDL | 0.028 | 0.030 | 0.029 | 124 | 13 | – | – | – | – | –
6 | FVTGNRDHTRE | – | – | – | – | – | 33 | 7 | 0.012 | 0.00754 | 0.016
7 | HCWVRGSRNYT | 2.570 | 2.548 | 2.559 | 11242 | 1098 | – | – | – | – | –
8 | WRDRFDQCVP | 0.038 | 0.053 | 0.046 | 167 | 23 | – | – | – | – | –
9 | HVFGNRSSTRG | – | – | – | – | – | 69 | 6 | 0.015 | 0.016 | 0.014
10 | LWGTRSFTLVRS | – | – | – | – | – | 64 | 5 | 0.013 | 0.015 | 0.012
11 | SFAKRVAAQGGC | 0.030 | 0.021 | 0.026 | 133 | 9 | – | – | – | – | –
12 | FIRGNSTSVLY | – | – | – | – | – | 58 | 8 | 0.016 | 0.013 | 0.019
13 | YVYGSRDRCWG | 0.445 | 0.441 | 0.443 | 1946 | 190 | – | – | – | – | –
14 | HAFGSRDITYY | 0.246 | 0.272 | 0.259 | 1078 | 117 | – | – | – | – | –
15 | YIYWSFTSARG | 0.050 | 0.032 | 0.041 | 219 | 14 | – | – | – | – | –
16 | TFRSRTSCGAV | – | – | – | – | – | 51 | 7 | 0.014 | 0.012 | 0.016
17 | CSSLRARGWI | – | – | – | – | – | 75 | 3 | 0.012 | 0.017 | 0.007
18 | VIWGSRLATGG | 0.025 | 0.026 | 0.025 | 109 | 11 | – | – | – | – | –

Row | Sequence | Percentage Seq I [%] | Percentage Seq II [%] | Percentage Average [%] | Counts Seq I | Counts Seq II | Counts (raw counts for peptide sequence), Seq I | Counts (raw counts for peptide sequence), Seq II | Percentage of the pool, averaged across the two sequencing samples [%] | Percentage of the pool, Seq I [%] | Percentage of the pool, Seq II [%]
19 | CFAFRLSQTSV | 0.179 | 0.146 | 0.162 | 782 | 63 | – | – | – | – | –
20 | FIRGNSTSVLF | 1.617 | 1.838 | 1.728 | 7076 | 792 | – | – | – | – | –
21 | CIRGTPTTVWG | 0.387 | 0.362 | 0.374 | 1692 | 156 | – | – | – | – | –
22 | CLRRSFLDNAGV | – | – | – | – | – | 57 | 7 | 0.015 | 0.013 | 0.016
23 | CYGGRTFIHAWS | 0.054 | 0.049 | 0.051 | 237 | 21 | – | – | – | – | –
24 | SAWGNRQIQYY | 7.073 | 7.046 | 7.059 | 30945 | 3036 | – | – | – | – | –
25 | CFSQRLDRTSS | 0.027 | 0.026 | 0.026 | 116 | 11 | – | – | – | – | –
26 | EARGTKSFAYY | 0.124 | 0.100 | 0.112 | 544 | 43 | – | – | – | – | –
27 | CFARRLSSSHSL | 0.161 | 0.155 | 0.158 | 705 | 67 | – | – | – | – | –
28 | CFSARATLDGGW | 0.036 | 0.030 | 0.033 | 157 | 13 | – | – | – | – | –
29 | CCGGRTFIYAWS | – | – | – | – | – | 44 | 4 | 0.010 | 0.010 | 0.009
30 | IARGDRNHQFY | 0.296 | 0.251 | 0.273 | 1296 | 108 | – | – | – | – | –
31 | SSYRELAHLSC | 0.127 | 0.125 | 0.126 | 555 | 54 | – | – | – | – | –
32 | WRDRFDQCIL | – | – | – | – | – | 60 | 5 | 0.013 | 0.014 | 0.012
33 | CFSRRLTEGAI | – | – | – | – | – | 41 | 5 | 0.010 | 0.009 | 0.012
34 | CLRLHREPGSL | 0.103 | 0.135 | 0.119 | 449 | 58 | – | – | – | – | –
35 | WRDRLDQCVL | 0.019 | 0.021 | 0.020 | 85 | 9 | – | – | – | – | –
36 | CFSTRLSRSYGT | 0.016 | 0.026 | 0.021 | 68 | 11 | – | – | – | – | –
